Data published in IntAct's records for PubMed 21666598.

B1: Shugoshin 2 (Homo sapiens), Q562F6 (parent)
chain: MECPVMETGSLFTSGIKRHLKDKRISKTTKLNVSLASKIKTKILNNSSIFKISLKHNNRALAQALSREKENSRRITTEKMLLQKEVEKLNFENTFLRLKLNNLNKKLIDIEALMNNNLITAIEMSSLSEFHQSSFLLSASKKKRISKQCKLMRLPFARVPLTSNDDEDEDKEKMQCDNNIKSKTLPDIPSSGSTTQPLSTQDNSEVLFLKENNQNVYGLDDSEHISSIVDVPPRESHSHSDQSSKTSLMSEMRNAQSIGRRWEKPSPSNVTERKKRGSSWESNNLSADTPCATVLDKQHISSPELNCNNEINGHTNETNTEMQRNKQDLPGLSSESAREPNAECMNQIEDNDDFQLQKTVYDADMDLTASEVSKIVTVSTGIKKKSNKKTNEHGMKTFRKVKDSSSEKKRERSKRQFKNSSDVDIGEKIENRTERSDVLDGKRGAEDPGFIFNNEQLAQMNEQLAQVNELKKMTLQTGFEQGDRENVLCNKKEKRITNEQEETYSLSQSSGKFHQESKFDKGQNSLTCNKSKASRQTFVIHKLEKDNLLPNQKDKVTIYENLDVTNEFHTANLSTKDNGNLCDYGTHNILDLKKYVTDIQPSEQNESNINKLRKKVNRKTEIISGMNHMYEDNDKDVVHGLKKGNFFFKTQEDKEPISENIEVSKELQIPALSTRDNENQCDYRTQNVLGLQKQITNMYPVQQNESKVNKKLRQKVNRKTEIISEVNHLDNDKSIEYTVKSHSLFLTQKDKEIIPGNLEDPSEFETPALSTKDSGNLYDSEIQNVLGVKHGHDMQPACQNDSKIGKKPRLNVCQKSEIIPETNQIYENDNKGVHDLEKDNFFSLTPKDKETISENLQVTNEFQTVDLLIKDNGNLCDYDTQNILELKKYVTDRKSAEQNESKINKLRNKVNWKTEIISEMNQIYEDNDKDAHVQESYTKDLDFKVNKSKQKLECQDIINKHYMEVNSNEKESCDQILDSYKVVKKRKKESSCKAKNILTKAKNKLASQLTESSQTSISLESDLKHITSEADSDPGNPVELCKTQKQSTTTLNKKDLPFVEEIKEGECQVKKVNKMTSKSKKRKTSIDPSPESHEVMERILDSVQGKSTVSEQADKENNLENEKMVKNKPDFYTKAFRSLSEIHSPNIQDSSFDSVREGLVPLSVSSGKNVIIKENFALECSPAFQVSDDEHEKMNKMKFKVNRRTQKSGIGDRPLQDLSNTSFVSNNTAESENKSEDLSSERTSRRRRCTPFYFKEPSLRDKMRR

Variants of: B1
Conditions: with md2l1_human MAD2L1, Q13257
Chain of md2l1_human MAD2L1, Q13257 (Q13257 whole entry): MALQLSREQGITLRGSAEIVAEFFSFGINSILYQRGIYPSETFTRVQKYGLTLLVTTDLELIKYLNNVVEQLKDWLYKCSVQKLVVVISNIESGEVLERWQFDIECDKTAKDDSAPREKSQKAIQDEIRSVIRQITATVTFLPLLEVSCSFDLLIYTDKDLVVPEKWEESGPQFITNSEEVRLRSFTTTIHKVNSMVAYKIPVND

| Variant | effect of a mutation on the interaction |
| --- | --- |
| R153A | disrupting interaction |

Variants of: B1
Conditions: with pp1a_human PPP1CA

| Variant | effect of a mutation on the interaction |
| --- | --- |
| N58I | disrupting interaction |
